Source: paper PMC314469, “Protein Interaction Networks by Proteome Peptide Scanning” (PLoS Biology, 2004)

Columns and labels:
[1] = molecular target: T1, amphyphisin SH3 (AMPH_HUMAN), P49418; assay: SPOT array
T1 chain: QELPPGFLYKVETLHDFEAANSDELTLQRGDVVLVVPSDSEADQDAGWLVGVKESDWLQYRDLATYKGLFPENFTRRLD

[2] = molecular target: endophilin SH3 (SH3G2_HUMAN), Q99962; assay: SPOT array

B1: Q92777 445-459 (peptide)
chain: SKTPPQRPPPQGSL
- normalised SPOT signal, Boehringer light units (BLU); mean over the file's lines of this peptide [1]: 193
- normalised SPOT signal, Boehringer light units (BLU); mean over the file's lines of this peptide [2]: 2380

B2: Q96AN7 126-139 (peptide)
chain: SITQLRRPSQLLYP
- normalised SPOT signal, Boehringer light units (BLU); mean over the file's lines of this peptide [1]: 9.2
- normalised SPOT signal, Boehringer light units (BLU); mean over the file's lines of this peptide [2]: 36.3

B3: Q8WVQ2 69-83 (peptide)
chain: SPGPPYRPPSQRLR
- normalised SPOT signal, Boehringer light units (BLU); mean over the file's lines of this peptide [1]: 547
- normalised SPOT signal, Boehringer light units (BLU); mean over the file's lines of this peptide [2]: 5840

B4: P09848 409-422 (peptide)
chain: SIWDPRRPLNTTEG
- normalised SPOT signal, Boehringer light units (BLU); mean over the file's lines of this peptide [1]: 10.9
- normalised SPOT signal, Boehringer light units (BLU); mean over the file's lines of this peptide [2]: 41.8

B5: O94848 219-232 (peptide)
chain: SMFFIRRPTLDINW
- normalised SPOT signal, Boehringer light units (BLU); mean over the file's lines of this peptide [1]: 58.5
- normalised SPOT signal, Boehringer light units (BLU); mean over the file's lines of this peptide [2]: 744

B6: Q96RW7 70-83 (peptide)
chain: SLKRPKRPLFNFAL
- normalised SPOT signal, Boehringer light units (BLU); mean over the file's lines of this peptide [1]: 169
- normalised SPOT signal, Boehringer light units (BLU); mean over the file's lines of this peptide [2]: 2170

B7: Q9P0U4 231-244 (peptide)
chain: SLPRPRRPLPTQQQ
- normalised SPOT signal, Boehringer light units (BLU); mean over the file's lines of this peptide [1]: 509
- normalised SPOT signal, Boehringer light units (BLU); mean over the file's lines of this peptide [2]: 3100

B8: Q9P206 440-453 (peptide)
chain: SLRKLKRPPPPPRR
- normalised SPOT signal, Boehringer light units (BLU); mean over the file's lines of this peptide [1]: 78.1
- normalised SPOT signal, Boehringer light units (BLU); mean over the file's lines of this peptide [2]: 199

B9: Q99776 220-233 (peptide)
chain: SLKIFRRPRKLFMQ
- normalised SPOT signal, Boehringer light units (BLU); mean over the file's lines of this peptide [1]: 88.1
- normalised SPOT signal, Boehringer light units (BLU); mean over the file's lines of this peptide [2]: 74.5

B10: Q9H8S7 107-120 (peptide)
chain: SPARPRRPHASRDG
- normalised SPOT signal, Boehringer light units (BLU); mean over the file's lines of this peptide [1]: 13800
- normalised SPOT signal, Boehringer light units (BLU); mean over the file's lines of this peptide [2]: 8710

B11: P21128 321-334 (peptide)
chain: SLSFIARPGKVSQL
- normalised SPOT signal, Boehringer light units (BLU); mean over the file's lines of this peptide [1]: 152
- normalised SPOT signal, Boehringer light units (BLU); mean over the file's lines of this peptide [2]: 146

B12: Q9UQ90 30-43 (peptide)
chain: SPGFPARPGRGRPY
- normalised SPOT signal, Boehringer light units (BLU); mean over the file's lines of this peptide [1]: 568
- normalised SPOT signal, Boehringer light units (BLU); mean over the file's lines of this peptide [2]: 754

B13: Q9C0H4 580-593 (peptide)
chain: SKASLSRPGRRPLG
- normalised SPOT signal, Boehringer light units (BLU); mean over the file's lines of this peptide [1]: 226
- normalised SPOT signal, Boehringer light units (BLU); mean over the file's lines of this peptide [2]: 53.5

B14: Q15742 478-492 (peptide)
chain: SPSVPAKPPLAEFE
- normalised SPOT signal, Boehringer light units (BLU); mean over the file's lines of this peptide [1]: 47.9
- normalised SPOT signal, Boehringer light units (BLU); mean over the file's lines of this peptide [2]: 67.1

B15: Q9UFD8 131-145 (peptide)
chain: SAVGPNRPPTVSQP
- normalised SPOT signal, Boehringer light units (BLU); mean over the file's lines of this peptide [1]: 51.4
- normalised SPOT signal, Boehringer light units (BLU); mean over the file's lines of this peptide [2]: 969

B16: P50570 773-787 (peptide)
chain: SIHPPGRPPAVRGP
- normalised SPOT signal, Boehringer light units (BLU); mean over the file's lines of this peptide [1]: 340
- normalised SPOT signal, Boehringer light units (BLU); mean over the file's lines of this peptide [2]: 2730

B17: Q9BYK8 558-571 (peptide)
chain: SLEVIRRPETKVLI
- normalised SPOT signal, Boehringer light units (BLU); mean over the file's lines of this peptide [1]: 22.1
- normalised SPOT signal, Boehringer light units (BLU); mean over the file's lines of this peptide [2]: 65.4

B18: Q9H0X9 173-186 (peptide)
chain: SSELIERPSKKDGF
- normalised SPOT signal, Boehringer light units (BLU); mean over the file's lines of this peptide [1]: 120
- normalised SPOT signal, Boehringer light units (BLU); mean over the file's lines of this peptide [2]: 71.5

B19: Q8TA97 483-497 (peptide)
chain: SHHPPDRPPDPFST
- normalised SPOT signal, Boehringer light units (BLU); mean over the file's lines of this peptide [1]: 30.4
- normalised SPOT signal, Boehringer light units (BLU); mean over the file's lines of this peptide [2]: 1390

B20: Q9HCU4 2269-2282 (peptide)
chain: SLRVPKRPIINTPV
- normalised SPOT signal, Boehringer light units (BLU); mean over the file's lines of this peptide [1]: 53.7
- normalised SPOT signal, Boehringer light units (BLU); mean over the file's lines of this peptide [2]: 2480

B21: O95180 532-545 (peptide)
chain: SHGSPRRPGPEPGA
- normalised SPOT signal, Boehringer light units (BLU); mean over the file's lines of this peptide [1]: 44.7
- normalised SPOT signal, Boehringer light units (BLU); mean over the file's lines of this peptide [2]: 31

B22: Q8TDT3 61-75 (peptide)
chain: SISFPTRPPLQAQI
- normalised SPOT signal, Boehringer light units (BLU); mean over the file's lines of this peptide [1]: 61.2
- normalised SPOT signal, Boehringer light units (BLU); mean over the file's lines of this peptide [2]: 162

B23: P51816 884-898 (peptide)
chain: SPAPPHKPPNTREN
- normalised SPOT signal, Boehringer light units (BLU); mean over the file's lines of this peptide [1]: 48.2
- normalised SPOT signal, Boehringer light units (BLU); mean over the file's lines of this peptide [2]: 78.5

B24: P30084 9-23 (peptide)
chain: SARGPLRPPVRSPA
- normalised SPOT signal, Boehringer light units (BLU); mean over the file's lines of this peptide [1]: 3810
- normalised SPOT signal, Boehringer light units (BLU); mean over the file's lines of this peptide [2]: 1950

B25: O14746 231-244 (peptide)
chain: SLPLPKRPRRGAAP
- normalised SPOT signal, Boehringer light units (BLU); mean over the file's lines of this peptide [1]: 5540
- normalised SPOT signal, Boehringer light units (BLU); mean over the file's lines of this peptide [2]: 9620

B26: Q92777 445-459 (peptide)
chain: SKTPPQRPPPQGGP
- normalised SPOT signal, Boehringer light units (BLU); mean over the file's lines of this peptide [1]: 127
- normalised SPOT signal, Boehringer light units (BLU); mean over the file's lines of this peptide [2]: 1450

B27: O00294 24-37 (peptide)
chain: SPEAPRRPKQRPAP
- normalised SPOT signal, Boehringer light units (BLU); mean over the file's lines of this peptide [1]: 62.1
- normalised SPOT signal, Boehringer light units (BLU); mean over the file's lines of this peptide [2]: 319

B28: Q9P217 544-557 (peptide)
chain: SPDSLSRPRRTVFT
- normalised SPOT signal, Boehringer light units (BLU); mean over the file's lines of this peptide [1]: 482
- normalised SPOT signal, Boehringer light units (BLU); mean over the file's lines of this peptide [2]: 90.9

B29: Q9UBP0 16-30 (peptide)
chain: SNPVPPRPPPPSLA
- normalised SPOT signal, Boehringer light units (BLU); mean over the file's lines of this peptide [1]: 143
- normalised SPOT signal, Boehringer light units (BLU); mean over the file's lines of this peptide [2]: 11600

B30: Q9HCG4 261-274 (peptide)
chain: SLALPRRPQNRDSI
- normalised SPOT signal, Boehringer light units (BLU); mean over the file's lines of this peptide [1]: 96.2
- normalised SPOT signal, Boehringer light units (BLU); mean over the file's lines of this peptide [2]: 866

B31: Q9UHI4 161-175 (peptide)
chain: SLVLPSRPPIGLPP
- normalised SPOT signal, Boehringer light units (BLU); mean over the file's lines of this peptide [1]: 40.4
- normalised SPOT signal, Boehringer light units (BLU); mean over the file's lines of this peptide [2]: 72.4

B32: Q14801 17-30 (peptide)
chain: SINLLSRPERGWEG
- normalised SPOT signal, Boehringer light units (BLU); mean over the file's lines of this peptide [1]: 0
- normalised SPOT signal, Boehringer light units (BLU); mean over the file's lines of this peptide [2]: 97.2

B33: Q96RL7 600-613 (peptide)
chain: SIVEFFRPPKEVHL
- normalised SPOT signal, Boehringer light units (BLU); mean over the file's lines of this peptide [1]: 164
- normalised SPOT signal, Boehringer light units (BLU); mean over the file's lines of this peptide [2]: 98.5

B34: Q96RJ6 21-34 (peptide)
chain: SLASPRRPLLSDFA
- normalised SPOT signal, Boehringer light units (BLU); mean over the file's lines of this peptide [1]: 78.6
- normalised SPOT signal, Boehringer light units (BLU); mean over the file's lines of this peptide [2]: 1690

B35: Q9H5L8 147-160 (peptide)
chain: SLMTPRRPLSTSEK
- normalised SPOT signal, Boehringer light units (BLU); mean over the file's lines of this peptide [1]: 70
- normalised SPOT signal, Boehringer light units (BLU); mean over the file's lines of this peptide [2]: 1480

B36: O95428 745-758 (peptide)
chain: SLHGPRRPQPGASG
- normalised SPOT signal, Boehringer light units (BLU); mean over the file's lines of this peptide [1]: 33.5
- normalised SPOT signal, Boehringer light units (BLU); mean over the file's lines of this peptide [2]: 256

B37: Q16204 419-432 (peptide)
chain: SPDKFKRPTPPPSP
- normalised SPOT signal, Boehringer light units (BLU); mean over the file's lines of this peptide [1]: 15.7
- normalised SPOT signal, Boehringer light units (BLU); mean over the file's lines of this peptide [2]: 35.9

B38: Q8WWW8 303-317 (peptide)
chain: SNTPPPRPPKPSHL
- normalised SPOT signal, Boehringer light units (BLU); mean over the file's lines of this peptide [1]: 2120
- normalised SPOT signal, Boehringer light units (BLU); mean over the file's lines of this peptide [2]: 18000

B39: O75097 1019-1032 (peptide)
chain: SALSLRRPHSGWSA
- normalised SPOT signal, Boehringer light units (BLU); mean over the file's lines of this peptide [1]: 27.1
- normalised SPOT signal, Boehringer light units (BLU); mean over the file's lines of this peptide [2]: 47.4

B40: Q9Y6V0 260-274 (peptide)
chain: SLPSPSKPPIQQPT
- normalised SPOT signal, Boehringer light units (BLU); mean over the file's lines of this peptide [1]: 55.1
- normalised SPOT signal, Boehringer light units (BLU); mean over the file's lines of this peptide [2]: 94.9

B41: Q9UPM8 1026-1039 (peptide)
chain: SLLDFIRPLKISSD
- normalised SPOT signal, Boehringer light units (BLU); mean over the file's lines of this peptide [1]: 219
- normalised SPOT signal, Boehringer light units (BLU); mean over the file's lines of this peptide [2]: 0

B42: Q9NZ56 228-242 (peptide)
chain: SMGPPSKPPDEEHR
- normalised SPOT signal, Boehringer light units (BLU); mean over the file's lines of this peptide [1]: 49.6
- normalised SPOT signal, Boehringer light units (BLU); mean over the file's lines of this peptide [2]: 44.5
